Literature values in PMC7322545.

Key:
CCL3 (Homo sapiens) = CCL3 (Homo sapiens) (UniProt P10147)
CCL4 (Homo sapiens) = CCL4 (Homo sapiens) (UniProt P13236)
CCL18 (Homo sapiens) = CCL18 (Homo sapiens) (UniProt P55774)

Measured: Kd

UniProt P55774, sequence (P55774 24-89): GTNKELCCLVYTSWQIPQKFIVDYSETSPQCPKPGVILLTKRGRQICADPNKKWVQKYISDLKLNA
UniProt P10147, sequence (P10147 24-92): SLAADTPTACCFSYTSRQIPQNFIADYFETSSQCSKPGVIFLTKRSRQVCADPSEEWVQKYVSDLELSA
UniProt P13236, sequence (P13236 24-92): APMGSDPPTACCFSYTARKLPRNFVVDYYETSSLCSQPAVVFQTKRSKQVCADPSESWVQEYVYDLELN

EVA-1 (from UniProt P0C8E7)
< 5 nM: all assays above
